One assay concerns the target HLA-B*15:02. The experiment in a line: IEDB peptide-MHC binding, purified MHC/competitive/fluorescence; filed as Kd, often an IC50 or EC50 that approximates it; ≥ and ≤ were set here for values at or beyond the usual limits of such assays.
A further assay has as its target HLA-B*14:02. The experiment in a line: IEDB peptide-MHC binding, purified MHC/competitive/fluorescence; ≥ and ≤ were set here for values at or beyond the usual limits of such assays. The settings on record: source organism: Human immunodeficiency virus 1.
The target in another assay is HLA-C*03:03. The assay can be described thus: IEDB peptide-MHC binding, purified MHC/direct/fluorescence; filed as Kd, often an IC50 or EC50 that approximates it; ≥ and ≤ were set here for values at or beyond the usual limits of such assays.
For a further assay, the target named is HLA-B*08:01. The assay is described as above.
A further assay concerns the target HLA-B*27:05. The experiment in a line: IEDB peptide-MHC binding, purified MHC/competitive/fluorescence; filed as Kd, often an IC50 or EC50 that approximates it; ≥ and ≤ were set here for values at or beyond the usual limits of such assays.
The target of another assay is HLA-A*02:19. The experiment in a line: IEDB peptide-MHC binding, purified MHC/direct/fluorescence; filed as Kd, often an IC50 or EC50 that approximates it; ≥ and ≤ were set here for values at or beyond the usual limits of such assays. To be noted: source organism: Ebola virus Yambio0403.
Assay [1] concerns the target HLA-A*03:01. Described as above. The settings on record: source organism: Ebola virus Yambio0403.
Assay [2] deals with HLA-A*02:03. Described as above. To be noted: source organism: Ebola virus Yambio0403.
Another assay concerns the target HLA-A*68:02. Described as above. The settings on record: source organism: Ebola virus Yambio0403.
In a further assay the target is HLA-A*02:16. Described as above. The settings on record: source organism: Ebola virus Yambio0403.
The target in a further assay is HLA-C*14:02. The assay is described as above.
Another assay concerns the target HLA-A*02:12. Described as above. The settings on record: source organism: Ebola virus Yambio0403.
In another assay the target is HLA-A*02:01. The assay can be described thus: IEDB peptide-MHC binding, purified MHC/competitive/fluorescence; filed as Kd, often an IC50 or EC50 that approximates it; ≥ and ≤ were set here for values at or beyond the usual limits of such assays. The settings on record: source organism: Zaire ebolavirus.
The next assay has as its target HLA-B*35:01. Described as above.
The target in a further assay is HLA-B*39:01. The description is as above. To be noted: source organism: Zaire ebolavirus.
The target in the next assay is HLA-B*57:01. Described as above.
The target of a further assay is HLA-A*26:01. The description is as above. The settings on record: source organism: Zaire ebolavirus.
Another assay has as its target HLA-B*51:01. The description is as above. The settings on record: source organism: Zaire ebolavirus.
For a further assay, the target named is HLA-B*46:01. Described as above. The settings on record: source organism: Zaire ebolavirus.
Another assay deals with HLA-A*69:01. The description is as above. To be noted: source organism: Zaire ebolavirus.
The target in the next assay is HLA-C*05:01. The assay can be described thus: IEDB peptide-MHC binding, purified MHC/direct/fluorescence; filed as Kd, often an IC50 or EC50 that approximates it; ≥ and ≤ were set here for values at or beyond the usual limits of such assays. The settings on record: source organism: Influenza A virus (A/duck/Bavaria/1/1977(H1N1)).
The target in another assay is HLA-C*07:02. The description is as above.
A further assay deals with HLA-B*07:02. The experiment in a line: IEDB peptide-MHC binding, purified MHC/competitive/fluorescence; filed as Kd, often an IC50 or EC50 that approximates it; ≥ and ≤ were set here for values at or beyond the usual limits of such assays. To be noted: source organism: Influenza A virus (A/duck/Bavaria/1/1977(H1N1)).
The target of the next assay is HLA-C*12:03. The experiment in a line: IEDB peptide-MHC binding, purified MHC/direct/fluorescence; filed as Kd, often an IC50 or EC50 that approximates it; ≥ and ≤ were set here for values at or beyond the usual limits of such assays.
A further assay addresses HLA-A*24:02. The experiment in a line: IEDB peptide-MHC binding, purified MHC/competitive/fluorescence; filed as Kd, often an IC50 or EC50 that approximates it; ≥ and ≤ were set here for values at or beyond the usual limits of such assays. The settings on record: source organism: Entamoeba histolytica HM-1:IMSS.
The target in another assay is HLA-B*18:01. Described as above. To be noted: source organism: Human immunodeficiency virus 1.
The target in a further assay is HLA-B*15:17. The description is as above. To be noted: source organism: Human immunodeficiency virus 1.
The target of a further assay is HLA-A*01:01. The assay is described as above.
The target of another assay is HLA-A*26:02. The description is as above. The settings on record: source organism: Human immunodeficiency virus 1.
Assay [3] deals with HLA-A*02:03. Described as above. The settings on record: source organism: Human immunodeficiency virus 1.
In the next assay the target is HLA-A*30:01. The assay is described as above. To be noted: source organism: Human immunodeficiency virus 1.
The target in another assay is HLA-A*02:06. The description is as above. The settings on record: source organism: Human immunodeficiency virus 1.
The target in the next assay is HLA-A*11:01. The description is as above. To be noted: source organism: Human immunodeficiency virus 1.
The target in another assay is HLA-B*15:01. The description is as above.
The target of the next assay is HLA-B*58:01. The assay is described as above.
Assay [4] has as its target HLA-A*03:01. Described as above. To be noted: source organism: Escherichia coli O139:H28 str. E24377A.
A further assay has as its target HLA-C*15:02. The experiment in a line: IEDB peptide-MHC binding, purified MHC/direct/fluorescence; filed as Kd, often an IC50 or EC50 that approximates it; ≥ and ≤ were set here for values at or beyond the usual limits of such assays. To be noted: source organism: Mycobacterium tuberculosis H37Ra.
Setting [5] is: source organism: Entamoeba histolytica HM-1:IMSS.
Where [6] appears, read: source organism: Zaire ebolavirus.
Setting [7] is: source organism: Yellow fever virus.
The mark [8] stands for this setting: source organism: Human immunodeficiency virus 1.
[9] abbreviates: source organism: Escherichia coli O139:H28 str. E24377A.
Where [10] appears, read: source organism: Mycobacterium tuberculosis H37Ra.
Where [11] appears, read: source organism: Shigella boydii CDC 3083-94.

Broadly, the Kd is a measure of binding affinity in units of concentration. A low value points to a tighter complex. Broadly, the IC50 is the concentration needed to halve the response being measured. Read a high IC50 as a need for much substance.

Regarding ILLFPLPSF, in the assay with HLA-B*15:02 (setting [5]), the Kd came out at 2060 nM.
For the sequence KHYMLKHL, in the assay with HLA-B*14:02, the half-inhibitory concentration (IC50) is at least 20000 nM.
For the sequence IMYNYPAML, the Kd with HLA-C*03:03 (source organism: Mycobacterium leprae) turned out to be 45 nM; with HLA-B*08:01 (source organism: Mycobacterium tuberculosis) it was 2680 nM.
In turn, YRWVNLASF yielded a Kd with HLA-B*27:05 (source organism: Mammarenavirus juninense) of 98.1 nM.
Take FRYEFTAPF: the Kd with HLA-A*02:19 was at least 20000 nM; with HLA-A*03:01 [1] it was at least 20000 nM; with HLA-A*02:03 [2], at least 20000 nM; in the assay with HLA-B*08:01 (setting [6]) it was 6570 nM; in the assay with HLA-A*68:02 it was at least 20000 nM; with HLA-A*02:16 it was at least 20000 nM. In addition, the Kd with HLA-C*14:02 (setting [6]) was 209 nM; with HLA-A*02:12, at least 20000 nM; with HLA-A*02:01, at least 20000 nM; with HLA-B*35:01 (setting [6]) it was 952 nM; with HLA-B*39:01, 0.7 nM; in the assay with HLA-B*57:01 (setting [6]), at least 20000 nM. The dissociation constant Kd with HLA-B*27:05 (setting [6]) is 724 nM; with HLA-A*26:01, at least 20000 nM; with HLA-B*51:01 it was at least 20000 nM; with HLA-B*46:01, at least 20000 nM; in the assay with HLA-A*69:01, at least 20000 nM.
For LPFQNIHPI, the dissociation constant Kd with HLA-C*05:01 was at least 20000 nM; in the assay with HLA-C*07:02 (source organism: Influenza A virus (A/duck/Bavaria/1/1977(H1N1))), at least 20000 nM; with HLA-B*07:02 it was 104 nM.
Regarding VAIDRPAEV, the Kd in the assay with HLA-C*03:03 (setting [7]) is 2 nM; with HLA-C*12:03 (setting [7]), at most 1 nM.
For KYNSHHFTF, the Kd in the assay with HLA-C*07:02 (setting [5]) is 2 nM; with HLA-C*14:02 (setting [5]), 80 nM; with HLA-A*24:02 it was at most 0.1 nM.
Sequence ELYPGDSAH displayed a Kd with HLA-B*15:02 (source organism: Clostridium botulinum A str. ATCC 3502) of 615 nM.
For the sequence KSLFNTIAVLY, the Kd in the assay with HLA-B*18:01 came to 260 nM; with HLA-B*15:17, 21.3 nM; with HLA-A*01:01 (setting [8]), 2130 nM; with HLA-B*35:01 (setting [8]), 1010 nM; in the assay with HLA-B*57:01 (setting [8]) it was 190 nM; with HLA-A*26:02, 1110 nM. For the same sequence, the Kd with HLA-A*02:03 [3] was found to be 566 nM; in the assay with HLA-A*30:01, 1350 nM; with HLA-A*02:06, 206 nM; with HLA-A*11:01, 1920 nM; with HLA-B*15:01 (setting [8]), 1200 nM.
With LANWCLLNY, the Kd in the assay with HLA-A*01:01 (setting [9]) was 1670 nM; with HLA-B*58:01 (setting [9]) it was 104 nM; with HLA-B*35:01 (setting [9]) it was 4.6 nM; with HLA-A*03:01 [4], at least 20000 nM; in the assay with HLA-B*15:01 (setting [9]), 2380 nM.
Turning to KAAGAAVAL, the figures for the Kd with HLA-C*03:03 (setting [10]), with HLA-C*15:02 and with HLA-C*12:03 (setting [10]) were 2 nM, 1770 nM and 76 nM, respectively.
As to KAWSEGLAM, the values for the Kd with HLA-B*58:01 (setting [11]) and with HLA-B*35:01 (setting [11]) were 458 nM and 0.2 nM, respectively.
TQHFGWHAF had a dissociation constant (Kd) with HLA-B*15:02 (source organism: Vibrio antiquarius) of 21.4 nM.
NLYGWHLPL showed a Kd in the assay with HLA-B*15:02 (source organism: Escherichia coli APEC O1) of 9.5 nM.

For the origin of these results see the Immune Epitope Database (IEDB).
